Assay results as given in the supplement of paper PMC9170038.

Test system: MS2 coat protein
Test: apparent KD of MS2 coat protein; designed switch direction (-1 OFF switch, 1 ON switch): -1; higher = weaker reporter binding
Summary of the method: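 Designed RNA switches with common flanks were made on Illumina chips by stalled E. coli RNA polymerase. Titration with SNAP-549-labelled MS2 coat protein doubled from 0.7 or 1.5 nM up to 3 µM. Apparent KD is each design's median over clusters after curve-fitting normalised fluorescence.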

[1] = Eterna round: R95, input ligand: FMN 200 uM
[2] = Eterna round: R95, input ligand: microRNA oligo, concentration not stated
[3] = Eterna round: R95, input ligand: none
[4] = input ligand: microRNA oligo, concentration not stated

Sequence | apparent KD of MS2 coat protein [1] | apparent KD of MS2 coat protein [2] | apparent KD of MS2 coat protein [3] | apparent KD of MS2 coat protein (input ligand: FMN 200 uM) | apparent KD of MS2 coat protein (input ligand: none) | apparent KD of MS2 coat protein [4]
UUUAAUUUUUUUUUUUUACAAGCUUUUUGCUCGUCUUAUACAUGAGGAUCACCCAUGUGGAUGGAGGGUAAAUUAUC [JMF 85] (puzzle: Sensor v3, turn-off variant 2) | 14.4 nM | 25.6 nM | 16.9 nM |  |  | 
AGCCACAGAGGAUAUACAUACAUCCAGUAGUAGAGAAUACUACAUGAGGAUCACCCAUGUAGAAGGCUGUGGCA [Omei Ex2 BD B14] (Eterna round: R97, puzzle: Exclusion 2) |  |  |  | 316 nM | 438 nM | 
AGUAACUAUCACGAAAGUGAUAGUUACAGCAAGUGAUAAACAUGAGGAUCACCCAUGUCCUCAUUUGCUCGUCUUAU [Sensor 3 - 12] (puzzle: Sensor v3, turn-off variant 2) | 15.1 nM | 739 nM | 12.7 nM |  |  | 
UGUUGGCGAGGAUAUACAUGAGGAUCACCCAUGUGAGAGAAAAAAGUGAGGAAGAAAAGUAGAAGGCGCUGACA [salish99_ex3_r3_045] (puzzle: Exclusion 3) | 371 nM | 42.5 nM | 48.4 nM |  |  | 
UGUGAGCUAGGAUAUGCUUUGGGCUCGCUUUCCUUCGAUAAACUUGAGGAUCACCCAAGUAGAAGGAGCUUGCA [Mod 31 - Jieux - Exclusion 2] (Eterna round: R97, puzzle: Exclusion 2) |  |  |  | 39.6 nM | 20.4 nM | 
AGUUCGCAGAGAGGAUAUAUAGGGUUACGGCCUAUAGAAGGUUCACGUUAGCCGCAACAUGAGGAUCACCCAUGUGCUCCGCGA [Eternabot solution 35] (Eterna round: R96, puzzle: Exclusion NG 1) |  |  |  | 27.5 nM | 29.6 nM | 20.9 nM
UUAUUAUAUGUAGGAUAUGCAUAUUAUUAUUAUGCAGAAGGACAUGAGGAUCACCCAUGUAUAUUGUUGUUGUAUAUUAUAUAU [Title] (Eterna round: R96, puzzle: Exclusion NG 1) |  |  |  |  |  | 20.9 nM
AAUAAUGGAGGAUAUACAUGAGGAUCACCCAUGUGAAUAAAAUAAAUAAAAUGAUAAAGUAGAAGGCCAAAUAA [JMF's solution 2] (puzzle: Exclusion 3) | 42.7 nM | 39.9 nM | 53.6 nM |  |  | 
GGUUUGGGAGGAUAUGGUUUUAAUAACAUGAGGAUCACCCAUGUAAAUAGAUCCUCAAGGCCAGAAGGCUCAAACC [-26.1, -25.22 kcal, A 33%] (Eterna round: R97, puzzle: Exclusion 5) |  |  |  | 212 nM | 1980 nM | 
CUUAGACAUGAGGAUCACCCAUGUGAGGAUAUGAUGAGGAUAAGGAAGGAAGAAGGAAUCAGAAGGCACAUAUG [Mat - Mod of Hyphema D27] (puzzle: Exclusion 1) | 102 nM | 69.4 nM | 74.2 nM |  |  | 
CCUUAAAUUGUAAGGAUAUUAAAGCUGCUGAGUUAUAAGAAGGUACAUGAGGAUCACCCAUGUUCGGCAGGGUC [Qulexeri] (puzzle: Brourd's mod of Exclusion 4) |  | 17.1 nM |  |  |  | 
UUCGUGCAGCUUUGCUGUACGCGUACAUGAGGAUCACCCAUGUAGGAUAUGGUAGGCAAAGCUUACUAGAAGGAUAGAGUGAUC [Mat - Exclusion NG 3 - Mod of JL - D74] (Eterna round: R96, puzzle: Exclusion NG 3) |  |  |  | 277 nM | 122 nM | 92.8 nM
CCUACUUACUAGGAUAUCAGAGUCGAAAGACUCUGAGAAGGAGUAACAUGAGGAUCACCCAUGUGUCCUAUAGG [Mod of Eli 11 - Jieux - Exclusion 6] (Eterna round: R97, puzzle: Exclusion 6) |  |  |  | 52.2 nM | 24.2 nM | 
UAGGAGUCAGGAUAUGCGAGAGAUUGAAGUAAGGGAUGAGAGCAGAAGGGACAUGAGGAUCACCCAUGUAAGGA [JR_Exclu4_Sub092] (puzzle: Exclusion 4) | 47.7 nM | 43.1 nM | 52 nM |  |  | 
GCCGAUUAAGUGAGGAUAUACCUAUGGAAACAUAGGUAGAAGGCACAUGAGGAUCACCCAUGUUCCUAUACGGC [Fiskers BMX 4 - 5] (puzzle: Brourd's mod of Exclusion 4) | 36.4 nM | 12.3 nM | 11 nM |  |  | 
GCUGCACAUGUAGGAUAUCUGCACGAUUAGUGCAGAGAAGGACAUGAGGAUCACCCAUGUAGAUCAGCAGCAAUUAAUUUAAUU [ENG1/6-A1] (Eterna round: R96, puzzle: Exclusion NG 1) |  |  |  | 232 nM | 400 nM | 241 nM
AGUACUAUCACGAAAGUGAUAGUACAAAAUAGCAAGUGAACAUGAGGAUCACCCAUGUCCUCAUUUGCUCGUCUUAU [Sensor 3 - 19] (puzzle: Sensor v3, turn-off variant 2) | 15.1 nM | 426 nM | 14.2 nM |  |  | 

Sequence | apparent KD of MS2 coat protein [1] | apparent KD of MS2 coat protein [2] | apparent KD of MS2 coat protein [3] | apparent KD of MS2 coat protein (input ligand: FMN 200 uM) | apparent KD of MS2 coat protein (input ligand: none) | apparent KD of MS2 coat protein [4]
CGCAUGUGAGGAUAUUAGUAGUAGUCAGAAAAGACUAUUACUGAGAAGGUACAUGAGGAUCACCCAUGUAUCCG [Mat - Exclusion 4 - Eli Mod - D46] (Eterna round: R97, puzzle: Exclusion 4) |  |  |  | 25.7 nM | 13.9 nM | 
UAUUAGCAAGCGAGAUCUCACAUGAGGAUCACCCAUGUGCUCGUCUUAUAAGGUACUGUGACGAGAGUCACGGUACC [Mat - Sensor, turn-off var - Eli Mod - D37] (Eterna round: R97, puzzle: Sensor, turn-off variant 1) |  |  |  | 13 nM | 14.1 nM | 
AAUAACAGAGGAUAUGCGAAUAAAUAAAACUUUUUUUUUUAACAUGAGGAUCACCCAUGUAGAAGGCUGAUAUU [Ex2 #21] (Eterna round: R97, puzzle: Exclusion 2) |  |  |  | 35.6 nM | 37 nM | 
AAGAAACAUGAGGAUCACCCAUGUGAGGAUAUGACUAAGAAAAGAAAAGAAAGAAGAAUCAGAAGGCACAAAGG [salish99-ex1_r3_053] (puzzle: Exclusion 1) | 29.7 nM | 43 nM | 49.3 nM |  |  | 
GUACCAAAUGUAGGAUAUGGAUCCGAUUAGGAUCCAGAAGGACAUGAGGAUCACCCAUGUACAUGAGGAUCACCCAUUAGGUAC [Fiskers ExNg1 - 11] (Eterna round: R96, puzzle: Exclusion NG 1) |  |  |  | 97.2 nM | 34.2 nM | 26.3 nM
AGACUGCUGCGAGGAUAUACAUGAGGAUCACCCAUGUUUUCCUGUGAGGCAUAGCCUCACAGGAUGUAGAAGGCGCAGUAGUCA [Mat - Exclusion NG 2 - Mod of JL - D30] (Eterna round: R96, puzzle: Exclusion NG 2) |  |  |  | 13.8 nM | 11.9 nM | 11.2 nM
AGCUGUGGCCGAGGAUAUCACGAACCAUGGAAAACCAUGGAAAUUCUACAUGAGGAUCACCCAUGUGAGAAGGCGGUCUCAGCA [Eli eng2 - 023] (Eterna round: R96, puzzle: Exclusion NG 2) |  |  |  |  |  | 12.5 nM
UCUUUAUUUGUGAGGAUAUCGAUAAAAUGGAUUGUCGAGAAGGCACAUGAGGAUCACCCAUGUGUGGAACAGCA [JR_BMEx4_Sub024] (Eterna round: R97, puzzle: Brourd's mod of Exclusion 4) |  |  |  | 54.8 nM | 18.8 nM | 
CCUUUGUGAGGAUAUCGUUGGCCAGACAUGAGGAUCACCCAUGUGGCUGGAACUCAUGGACGAGAAGGCACCUCUU [Eternabot (L2) Solution 52] (Eterna round: R97, puzzle: Exclusion 5) |  |  |  | 338 nM | 399 nM | 
GACUGCUGAGGAUAUACAUGAGGAUCACCCAUGUGCUUCAGCUACGAAAGUAGCAUUGGUAGAAGGUAGUAGUC [LRO-Excl3-05] (puzzle: Exclusion 3) |  | 11.5 nM |  |  |  | 
GAAAACCGGUGAGGAUAUUUAUAAUAGAGCUUUAUGAUAUACAUGAGGAUCACCCAUGUUACUUUAAAGAAGGCAUCGGAAAAG [Mat - Exclusion NG 2 - Mod of JL - D94] (Eterna round: R96, puzzle: Exclusion NG 2) |  |  |  | 19.1 nM | 18.9 nM | 12.5 nM
GGUUGACAUGAGGAUCACCCAUGUGAGGAUAUGCGAGAGAAAAAAGUGAGGAAGAAACGCAGAAGGCGCUGUCG [salish99-ex1_r3_010] (puzzle: Exclusion 1) | 59.3 nM | 163 nM | 133 nM |  |  | 
UAGAUGGGAGGAUAUACGUAGUUGCAGGUUCGUGUGGUGCUACAUGAGGAUCACCCAUGUAGAAGGCCCGUCUU [JL-ex2-2.30 Mayanne mod] (puzzle: Exclusion 2) |  | 13.3 nM |  |  |  | 
UCGCUCCGUGUAGGAUAUCGUUGUAUUCUGCGGCGAGAAGGACAUGAGGAUCACCCAUGUAUGUUAUUAUCACGCGUGGCGCAA [Design 67] (Eterna round: R96, puzzle: Exclusion NG 1) |  |  |  |  |  | 13.9 nM
GUACUGACAGGAUAUACAUGAGGAUCACCCAUGUGCCCUUAAAGAUGCAAAGCAUCAAGUAGAAGGGUCUGUAC [Omei Ex3 Model Bachelor's Dilema v21] (Eterna round: R97, puzzle: Exclusion 3) |  |  |  | 53 nM | 40.5 nM | 
AAGAAACAUGAGGAUCACCCAUGUGAGGAUAUGAGUAAGAAAAGAAAAGAAAGAAGAAUCAGAAGGCACAAAGG [salish99-ex1_r3_048] (puzzle: Exclusion 1) | 55.2 nM | 38.3 nM | 38.3 nM |  |  | 
